# In patent US20250262210A1 (TRUSTEES OF COLUMBIA UNIVERSITY IN THE CITY OF NEW YORK, published 2025):
# T1: LONP2 (human, UniProt Q86WA8 2-852, limits assumed)
# T1 sequence (looked up): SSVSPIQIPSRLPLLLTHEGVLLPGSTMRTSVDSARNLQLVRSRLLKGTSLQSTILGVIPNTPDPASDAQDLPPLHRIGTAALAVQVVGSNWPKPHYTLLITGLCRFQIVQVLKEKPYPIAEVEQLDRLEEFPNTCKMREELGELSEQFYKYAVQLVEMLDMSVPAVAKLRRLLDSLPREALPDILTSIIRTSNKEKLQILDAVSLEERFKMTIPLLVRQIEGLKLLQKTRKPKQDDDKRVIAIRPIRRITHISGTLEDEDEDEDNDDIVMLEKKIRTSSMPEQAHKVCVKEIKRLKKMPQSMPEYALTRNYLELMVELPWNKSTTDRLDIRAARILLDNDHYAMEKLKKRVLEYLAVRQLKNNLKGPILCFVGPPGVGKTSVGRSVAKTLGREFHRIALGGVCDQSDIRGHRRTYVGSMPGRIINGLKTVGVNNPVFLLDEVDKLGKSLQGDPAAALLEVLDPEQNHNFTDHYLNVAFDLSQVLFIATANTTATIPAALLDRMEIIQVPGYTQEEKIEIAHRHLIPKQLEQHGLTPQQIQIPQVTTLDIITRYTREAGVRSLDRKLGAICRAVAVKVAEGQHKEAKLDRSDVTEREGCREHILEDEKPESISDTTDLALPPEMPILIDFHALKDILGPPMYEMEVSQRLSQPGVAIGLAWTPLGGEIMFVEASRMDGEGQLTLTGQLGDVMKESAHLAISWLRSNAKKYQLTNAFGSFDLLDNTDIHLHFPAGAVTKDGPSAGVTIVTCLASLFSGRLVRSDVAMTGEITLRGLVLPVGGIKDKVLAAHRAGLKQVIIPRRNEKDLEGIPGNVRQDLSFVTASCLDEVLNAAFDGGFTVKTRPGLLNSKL
# T2: SLC4A2 (human, UniProt P04920 1-1241, limits assumed)
# T2 sequence (looked up): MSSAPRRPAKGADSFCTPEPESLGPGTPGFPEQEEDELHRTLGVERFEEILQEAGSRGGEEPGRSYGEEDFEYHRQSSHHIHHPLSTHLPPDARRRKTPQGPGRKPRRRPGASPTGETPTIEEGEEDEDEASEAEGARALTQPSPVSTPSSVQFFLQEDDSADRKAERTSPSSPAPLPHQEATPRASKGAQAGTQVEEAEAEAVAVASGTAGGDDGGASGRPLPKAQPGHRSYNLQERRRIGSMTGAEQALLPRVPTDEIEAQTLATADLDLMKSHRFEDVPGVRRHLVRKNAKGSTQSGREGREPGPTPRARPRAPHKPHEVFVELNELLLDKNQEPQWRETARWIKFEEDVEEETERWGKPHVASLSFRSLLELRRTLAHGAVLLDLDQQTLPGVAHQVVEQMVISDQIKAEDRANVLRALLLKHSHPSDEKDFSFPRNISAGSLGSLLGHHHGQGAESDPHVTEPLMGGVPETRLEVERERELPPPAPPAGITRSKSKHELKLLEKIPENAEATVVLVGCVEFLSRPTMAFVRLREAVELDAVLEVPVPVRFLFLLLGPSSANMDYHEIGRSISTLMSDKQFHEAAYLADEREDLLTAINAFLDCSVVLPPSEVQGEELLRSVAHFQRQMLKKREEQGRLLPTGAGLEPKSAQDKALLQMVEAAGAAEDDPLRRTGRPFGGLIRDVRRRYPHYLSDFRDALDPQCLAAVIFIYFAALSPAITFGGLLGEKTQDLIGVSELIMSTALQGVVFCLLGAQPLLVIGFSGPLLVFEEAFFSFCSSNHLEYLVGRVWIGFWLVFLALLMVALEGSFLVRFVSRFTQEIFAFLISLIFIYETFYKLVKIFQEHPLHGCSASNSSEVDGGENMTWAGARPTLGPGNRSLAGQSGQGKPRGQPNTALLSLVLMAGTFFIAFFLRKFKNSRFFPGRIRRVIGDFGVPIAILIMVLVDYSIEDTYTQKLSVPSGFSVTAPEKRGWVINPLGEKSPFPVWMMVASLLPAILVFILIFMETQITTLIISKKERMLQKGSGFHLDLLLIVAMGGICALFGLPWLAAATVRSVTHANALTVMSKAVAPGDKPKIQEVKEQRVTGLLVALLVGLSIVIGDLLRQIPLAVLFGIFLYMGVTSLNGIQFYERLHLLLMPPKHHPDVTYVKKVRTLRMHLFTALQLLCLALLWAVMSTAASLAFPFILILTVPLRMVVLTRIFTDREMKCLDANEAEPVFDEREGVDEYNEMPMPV
# B1: LZTR1 R810W-FLAG (other, human, UniProt Q8N653 1-840, looked up)
# chain: MAGPGSTGGQIGAAALAGGARSKVAPSVDFDHSCSDSVEYLTLNFGPFETVHRWRRLPPCDEFVGARRSKHTVVAYKDAIYVFGGDNGKTMLNDLLRFDVKDCSWCRAFTTGTPPAPRYHHSAVVYGSSMFVFGGYTGDIYSNSNLKNKNDLFEYKFATGQWTEWKIEGRLPVARSAHGATVYSDKLWIFAGYDGNARLNDMWTIGLQDRELTCWEEVAQSGEIPPSCCNFPVAVCRDKMFVFSGQSGAKITNNLFQFEFKDKTWTRIPTEHLLRGSPPPPQRRYGHTMVAFDRHLYVFGGAADNTLPNELHCYDVDFQTWEVVQPSSDSEVGGAEVPERACASEEVPTLTYEERVGFKKSRDVFGLDFGTTSAKQPTQPASELPSGRLFHAAAVISDAMYIFGGTVDNNIRSGEMYRFQFSCYPKCTLHEDYGRLWESRQFCDVEFVLGEKEECVQGHVAIVTARSRWLRRKITQARERLAQKLEQEAAPVPREAPGVAAGGARPPLLHVAIREAEARPFEVLMQFLYTDKIKYPRKGHVEDVLLIMDVYKLALSFQLCRLEQLCRQYIEASVDLQNVLVVCESAARLQLSQLKEHCLNFVVKESHFNQVIMMKEFERLSSPLIVEIVRRKQQPPPRTPLDQPVDIGTSLIQDMKAYLEGAGAEFCDITLLLDGHPRPAHKAILAARSSYFEAMFRSFMPEDGQVNISIGEMVPSRQAFESMLRYIYYGEVNMPPEDSLYLFAAPYYYGFYNNRLQAYCKQNLEMNVTVQNVLQILEAADKTQALDMKRHCLHIIVHQFTKVSKLPTLWSLSQQLLLDIIDSLASHISDKQCAELGADI
# notes: Stably expressed in U87 cells by lentivirus; also called LZTR1-FLAG-R810W; LZTR1 RW; not shown: FLAG tag
# Experiments:
# [1] = molecular target: T1, LONP2; test: IP/MS, LZTR1 R810W-FLAG, U87
# Procedure, shortened: (§1)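 Extracted peptides in 3% acetonitrile/0.1% formic acid ran on a 50 cm C18 column into an Orbitrap Fusion, with MaxQuant identification and spectral counting.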
# [2] = molecular target: T2, SLC4A2; test: IP/MS, LZTR1 R810W-FLAG, U87
# Procedure, shortened: as §1
binder,measurement,setting,value
B1,binding result,[1],binds
same,binding result,[2],binds
